In publication PMC9835956 (Science (New York, N.y.), 2021):

B1: S2X333 mAb (NTD-specific, neutralizing, antigenic site i) (antibody, V domains shown)
VH: VQLVESGGGVVQPGRSLRLSCAASGFTFSNYGMHWVRQAPGKGLEWVAVIWYDGSNKFYADSVKGRFTISRDNSKNSLYLQMNSLRAEDTAVYFCARAFPDSSSWSGFTIDYWGQGTLVTV
VL: YELTQPPSVSTARITCGGNNIERKSVHWCQQKPGQAPALVVYDDSDRPSGIPERFSGSNSGNTATLTISRVEAGDEADYYCQVWDSGSDQVIFGGGTKLT
B2: S2L20 mAb (antibody, V domains shown)
VH: EVQLVESGGGVVQPGGSLRLSCAASGFTFNSYGMHWVRQAPGKGLEWVAFIRYDGGNKYYADSVKGRFTISRDNSKNTLYLQMKSLRAEDTAVYYCANLKDSRYSGSYYDYWGQGTLVTVS
VL: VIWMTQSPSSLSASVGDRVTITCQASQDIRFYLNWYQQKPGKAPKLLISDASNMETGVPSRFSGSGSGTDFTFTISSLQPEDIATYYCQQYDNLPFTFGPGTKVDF

How the values were obtained:
[1] = target: SARS-CoV-2 S N-terminal domain (NTD), wild type, with the native signal peptide (SARS-CoV-2, Wuhan-Hu-1 (wild type), UniProt P0DTC2); assay: ELISA; details: both partners purified
[2] = target: SARS-CoV-2 WT NTD with the native signal peptide (SARS-CoV-2, Wuhan-Hu-1 (wild type), UniProt P0DTC2); assay: ELISA; details: both partners purified

Row | Binder | binding result [1] | binding result [2]
1 | B1 | binds | –
2 | B2 | – | binds
